According to the supplement of paper PMC10126150:
± gives the standard deviation of the averaged measurements.

Tested on: ATP
Test: switch fluorescence ratio, 500 uM ATP over buffer (Cy3 cluster intensity, sum of 5 cycles each) (fold (ratio)); higher = stronger signal-on switching upon ATP binding; sequences stand for … in TCGTCGGCAGCGTCAGATGTGTATAAGAGACAGTTTTTTTTTTTTTTTTTTTTTTTTT…TC
Details: aptamer strand: ATP DNA aptamer (quencher-CACCTGGGGGAGTATTGCGGAGGAAGG + anchor), 100 nM annealed; ATP concentration: 500 uM
Procedure, shortened: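 Five buffer/ATP imaging cycles were run on Cy3-labelled switching-strand clusters on a modified Illumina MiSeq flow-cell, with NaOH stripping and re-annealing between cycles. In each cycle, clusters annealed to 100 nM quencher-labelled ATP aptamer were imaged in selection buffer, then after 15 min with 500 uM ATP at 22 °C. Per cluster, the fluorescence ratio is summed target-cycle over summed buffer-cycle Cy3 intensity, averaged per switch-domain sequence. Only clusters within 100-1000 RFU were kept.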
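Further: ATP exposure 15 min at 22 °C before imaging.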

Sequence | switch fluorescence ratio
CGAATGGGTT | 0.965 ± 0.011
CGAATGTTGG | 0.99 ± 0.041
CGAATTAGGT | 1.03 ± 0.019
CGACAAGCTT | 1.03 ± 0.016
CGACAATCAT | 1.039 ± 0.0036
CGACAGCGGC | 2.11 ± 0.094
CGACATATCC | 1.12 ± 0.027
CGACATGGTC | 1.02 ± 0.015
CGACCACGTA | 1.12 ± 0.029
CGACGAGTAA | 1.32 ± 0.36
CGACGATCGT | 0.971 ± 0.028
CGACGATGAC | 5.46 ± 0.077
CGACGATTTG | 1.01 ± 0.026
CGACGCGGTA | 3.14 ± 0.059
CGACGCTTGT | 3.15 ± 0.38
CGACGGGGCT | 1.13 ± 0.049
CGACGGGTTT | 1.08 ± 0.035
CGACGTTCGC | 1.48 ± 0.037
CGACTACTTT | 1.05 ± 0.031
CGACTAGGAA | 1.04 ± 0.023
CGACTAGGGG | 1.01 ± 0.024
CGACTGGGGG | 0.957 ± 0.026
CGACTTGGAA | 1.02 ± 0.036

Sequence | switch fluorescence ratio
CGAGACTAGT | 1.01 ± 0.063
CGAGACTTAT | 0.996 ± 0.013
CGAGATTTGT | 1.011 ± 0.0097
CGAGCAGTGG | 1.1 ± 0.034
CGAGCCAGAT | 1.04 ± 0.028
CGAGCGGAAG | 1.03 ± 0.032
CGAGCTTGAG | 0.99 ± 0.002
CGAGGAAGGG | 1.01 ± 0.021
CGAGGACGGG | 1 ± 0.029
CGAGGATAAC | 1.03 ± 0.043
CGAGGATGT | 1.01 ± 0.011
CGAGGCACAG | 1.53 ± 0.052
CGAGGCTAGG | 1.07 ± 0.021
CGAGGGAACG | 1 ± 0.04
CGAGGGACTG | 0.984 ± 0.0099
CGAGGGATGG | 0.977 ± 0.05
CGAGGGGAGG | 1.05 ± 0.028
CGAGGGGGA | 1.0066 ± 0.00091
CGAGGGGGTG | 1.02 ± 0.055
CGAGGGTTGG | 1.02 ± 0.018
CGAGTAAAAT | 1.08 ± 0.1
CGAGTAGGGA | 0.995 ± 0.021
CGAGTAGTAG | 1.03 ± 0.059

Sequence | switch fluorescence ratio
CGAGTCCATC | 0.955 ± 0.012
CGAGTCCCAC | 1 ± 0.12
CGAGTCCGTT | 0.99 ± 0.018
CGAGTGGATG | 0.994 ± 0.018
CGAGTTGGTA | 1.01 ± 0.025
CGAGTTTGAC | 0.977 ± 0.019
CGATACGTGG | 1.02 ± 0.042
CGATAGGGGC | 1.08 ± 0.14
CGATAGTTGT | 1.27 ± 0.38
CGATATATGA | 1.02 ± 0.019
CGATATGTAG | 1.016 ± 0.0045
CGATATTGAT | 1.03 ± 0.035
CGATCCCGGG | 1.07 ± 0.11
CGATCCGTCC | 1.09 ± 0.032
CGATCGATAT | 0.998 ± 0.032
CGATCGGATT | 1.01 ± 0.017
CGATCGGTAC | 3.3 ± 0.38
CGATCGTAAT | 2.1 ± 0.036
CGATCTTGTT | 0.982 ± 0.018
CGATGAAAGG | 0.966 ± 0.023
CGATGCTAGT | 1.07 ± 0.037
CGATGGAGGA | 0.98967 ± 0.00091
CGATGGCCCT | 1.03 ± 0.011

Sequence | switch fluorescence ratio
CGATGGGGGG | 0.982 ± 0.06
CGATGGTAAG | 0.972 ± 0.011
CGATGGTCTG | 0.9872 ± 0.0018
CGATGTCGAA | 1.01 ± 0.011
CGATGTCGCG | 0.989 ± 0.028
CGATGTTATG | 1.02 ± 0.022
CGATTAAAAT | 0.986 ± 0.021
CGATTAAATG | 0.993 ± 0.013
CGATTAAGGT | 1.02 ± 0.043
CGATTATGGT | 1.003 ± 0.0094
CGATTATTTG | 0.9786 ± 0.0053
CGATTCAAGG | 1.03 ± 0.017
CGATTCGGTG | 0.9698 ± 0.0031
CGATTCTGCT | 0.996 ± 0.036
CGATTGATGT | 1.02 ± 0.016
CGATTGGTAC | 1.25 ± 0.023
CGATTTGCTT | 0.969 ± 0.058
CGATTTTGTA | 1.01 ± 0.051
CGATTTTGTT | 0.989 ± 0.034
CGCACTTGGG | 0.99283 ± 0.0007
CGCAGCTATT | 3.56 ± 2.1
CGCAGGCTTG | 1.04 ± 0.043
CGCAGGGGGA | 1.033 ± 0.008

Sequence | switch fluorescence ratio
CGCAGGGGGC | 1.14 ± 0.059
CGCATAGGCT | 1.11 ± 0.18
CGCATGATGT | 1.03 ± 0.018
CGCATGGGGT | 1.0574 ± 1.7e-05
CGCATTCGTG | 1.08 ± 0.029
CGCATTCTAA | 1.31 ± 0.019
CGCATTCTGC | 1.17 ± 0.091
CGCCCGTAGG | 1.05 ± 0.011
CGCCTCATGA | 1.04 ± 0.029
CGCCTTGGGG | 1 ± 0.05
CGCCTTGTTC | 1.01 ± 0.012
CGCGAAAGCC | 1.002 ± 0.01
CGCGAAGAAC | 1.039 ± 0.0088
CGCGAGGGGC | 1.07 ± 0.012
CGCGATCGCG | 0.994 ± 0.055
CGCGCCCCTT | 1.13 ± 0.015
CGCGCGATTA | 1.02 ± 0.036
CGCGGATTCT | 1.04 ± 0.021
CGCGGCTATT | 1.07 ± 0.034
CGCGGCTGGG | 1 ± 0.026
CGCGGCTTGG | 1.01 ± 0.018
CGCGGGGCAC | 1.062 ± 0.0025
CGCGGGGTAC | 1.66 ± 0.26

Sequence | switch fluorescence ratio
CGCGGTAGTC | 1.1 ± 0.046
CGCGGTTTGT | 0.988 ± 0.017
CGCGTCAGCC | 0.979 ± 0.073
CGCGTCGCTG | 0.9811 ± 0.0012
CGCGTGTCTG | 1.022 ± 0.0039
CGCGTTGTGC | 1.11 ± 0.021
CGCGTTTTTT | 1.07 ± 0.12
CGCTAATCAG | 1.05 ± 0.043
CGCTAATGCG | 1.04 ± 0.059
CGCTACGGAG | 1.02 ± 0.029
CGCTATAAGG | 1.03 ± 0.017
CGCTATGGGG | 1.02 ± 0.059
CGCTATGTGG | 1.02 ± 0.041
CGCTATTGTT | 1.028 ± 0.0065
CGCTATTTTA | 1.04 ± 0.039
CGCTCAGGAC | 1.29 ± 0.1
CGCTCTTGTA | 0.991 ± 0.012
CGCTGATTTG | 1.002 ± 0.0074
CGCTGCGGTT | 1.01 ± 0.05
CGCTGGACGG | 1.023 ± 0.0098
CGCTGGATAG | 1.08 ± 0.051
CGCTGGGGAT | 1.04 ± 0.027
CGCTGGGTCA | 1.04 ± 0.13

Sequence | switch fluorescence ratio
CGCTGGGTTT | 0.976 ± 0.035
CGCTGTGCGG | 0.99 ± 0.052
CGCTGTTGGT | 0.9997 ± 0.0098
CGCTTAAGAG | 1.02 ± 0.014
CGCTTAATTG | 1.01 ± 0.051
CGCTTATGGA | 1.003 ± 0.0032
CGCTTGACTT | 0.985 ± 0.028
CGCTTGGTTT | 0.9911 ± 0.0063
CGCTTTAATT | 0.989 ± 0.032
CGCTTTTTTG | 1.01 ± 0.032
CGGAAAGAAA | 1.06 ± 0.058
CGGAAAGGGT | 1.01 ± 0.027
CGGAAATAT | 1.023 ± 0.0046
CGGAAATTGG | 0.982 ± 0.012
CGGAAATTTG | 1.02 ± 0.032
CGGAACAGTT | 1.02 ± 0.024
CGGAAGAATT | 0.99422 ± 0.00026
CGGAAGATAG | 1.027 ± 0.0066
CGGAAGCTTT | 1.04 ± 0.021
